{"source": "paper PMC7605794", "binders": {"B1": {"name": "BC 007 (structured_DNA)", "DNA": "GGTTGGTGTGGTTGG"}}, "experiment_in_all_cases": "ITC", "key": {"[1]": {"target": "T1, HRFYRLAN peptide (RNA dependent RNA polymerase) (SARS-CoV-2, UniProt P0DTD1)", "T1 chain": "HRFYRLAN"}, "[2]": {"target": "T2, NRKRISN peptide (spike RBD) (SARS-CoV-2, UniProt P0DTC2)", "T2 chain": "NRKRISN"}, "[3]": {"target": "T3, YRLFRK peptide (spike RBD) (SARS-CoV-2, UniProt P0DTC2)", "T3 chain": "YRLFRK"}}}
{"binder": "B1", "values": [{"measurement": "Kd", "setting": "[1]", "value": "54.7 ± 0.6", "unit": "µM"}, {"measurement": "binding result", "setting": "[2]", "value": "no binding"}, {"measurement": "Kd", "setting": "[3]", "value": "86.7 ± 1.2", "unit": "µM"}]}
